Assay results taken from US9096646B2, “CXCR4 receptor compounds” (priority 2008, dated 2015).
“And” between values parts separate entries of the source, which are not always exact repeats. Equal entries are not always repeated. Where two headings read alike, the source gives them in different places. Peptide text beside a SMILES is read from it. * marks the point of attachment. Palmitoyl = CCCCCCCCCCCCCCCC(=O)*

Target: CXCR4 (Homo sapiens, UniProt P61073)
Test: Chemotaxis assay using SUP B-15 cells
Assay type: cell-based
Set-up: A similar procedure was followed for chemotaxis using SUP B-15 cells; endogenous in cells; host or cells: SUP B-15 cells
Details: for AUC (% of vehicle) / Max (% of vehicle) / Peak Test Comp.: Table 19, i2 loop, SUPB-15 cells, conc 1.0 uM; for activity at 1 µM: SUP-B15, Table 18, i1 loop, SUP B-15 cells, drug conc 1.0 uM
Excerpt: Chemotaxis assays were utilized to determine the effect of compound on the directed migration of cells in response to chemokine. Cells that express a receptor of interest were placed in the upper chamber of a Transwell chemotaxis plate (Corning) and allowed to migrate through a polycarbonate membrane to a lower chamber containing the appropriate receptor-specific ligand. To test for antagonist or potentiating activity, cells were mixed with the desired concentration of compound prior to addition to the upper chamber. Conversely, agonist activity was determined by adding compound in the bottom chamber only without endogenous chemokine. The effect of compound is quantified by several parameters, including the extent of maximum response, the shift of agonist dose-response curves, and the area under the curve.
To measure the CXCR4-dependent migration of cells, the appropriate concentration of CXCL12 (SDF1a) or test compound was diluted in phenol red-free RMPI-1640/20 mM HEPES/0.5% BSA buffer and placed in the bottom chamber of a transwell apparatus. CCRF-CEM cells, a human T-cell ALL line that endogenously expresses CXCR4, were washed twice in buffer and resuspended at 133,000 cells/ml. A 75 μl sample of this suspension is mixed with the test compound of interest and placed in the upper chamber of a 5-micron transwell apparatus.
To initiate cell migration, the assembled transwell plate was placed in a 37° C., […] incubator for a specified time interval, typically between 30 and 120 minutes. After incubation, the unit was disassembled and the lower chamber placed at −80° C. overnight to facilitate lysis of cells. To quantify migrated cells, plates were thawed at 37° C. in a humidified chamber, and then a sample volume was removed from each well and mixed with an equal volume of CyQuant (Invitrogen) working solution in opaque plates. The fluorescence intensity of each well represents the DNA content and is directly proportional to cell number. Each sample was typically run in duplicate or triplicate and each plate included two separate negative controls. The plate background control, which included no cells in the upper chamber, was subtracted from all values. The negative control had no agonist added in the lower chamber, and served to establish the baseline for random migration. A similar procedure was followed for chemotaxis using SUP B-15 cells.

Sequence of CXCR4 (P61073 whole entry): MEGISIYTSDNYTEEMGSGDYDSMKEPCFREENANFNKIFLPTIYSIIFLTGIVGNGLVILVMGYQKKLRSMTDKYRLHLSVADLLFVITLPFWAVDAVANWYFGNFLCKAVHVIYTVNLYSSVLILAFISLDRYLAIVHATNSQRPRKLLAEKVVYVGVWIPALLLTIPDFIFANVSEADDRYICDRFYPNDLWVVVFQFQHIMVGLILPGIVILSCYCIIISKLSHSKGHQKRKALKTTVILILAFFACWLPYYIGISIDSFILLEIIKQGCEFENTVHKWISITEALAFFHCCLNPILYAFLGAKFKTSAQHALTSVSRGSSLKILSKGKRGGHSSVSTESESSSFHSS

| activity at 1 µM (read-out: AUC (% of)) [%] | activity at 1 µM (read-out: Max (% of)) [%] | Compound | AUC (% of vehicle) | Max (% of vehicle) | Peak Test Comp. [nM] |
| --- | --- | --- | --- | --- | --- |
| – | – | 82 (Palmitoyl-HATNSQRPRKLLAEK-NH2; not fully specified) [Compound 82] | 124.56 % of vehicle | 126.31 % of vehicle | 1 |
| – | – | 79 (Palmitoyl-HATNSQRPRKL-NH2; not fully specified) [Compound 79] | 109.36 % of vehicle | 109.68 % of vehicle | 5 |
| 178 | 194 | CCCCCCCCCCCCCCCC(=O)N[C@@H](CCCCN)C(=O)N[C@@H](CCCCN)C(=O)N[C@@H](CC(C)C)C(=O)N[C@@H](CCCNC(=N)N)C(=O)N[C@@H](CO)C(=O)N[C@@H](CCSC)C(=O)N[C@H](C(=O)N[C@@H](CC(=O)O)C(=O)N[C@@H](CCCCN)C(=O)N[C@@H](Cc1ccc(O)cc1)C(=O)N[C@@H](CCCNC(=N)N)C(N)=O)[C@@H](C)O [Compound 45] (Palmitoyl-KKLRSMTDKYR-NH2) | – | – | – |
| – | – | 78 (Palmitoyl-VHATNSQRPRKLLA-NH2; not fully specified) [Compound 78] | 71.85 % of vehicle | 72.31 % of vehicle | 5 |
| – | – | 81 (Palmitoyl-HATNSQRPRKLLAE-NH2; not fully specified) [Compound 81] | 79.85 % of vehicle | 76.46 % of vehicle | 5 |
| 43.8 | 33.5 | CCCCCCCCCCCCCCCC(=O)N[C@@H](CCCCN)C(=O)N[C@@H](CCCCN)C(=O)N[C@@H](CC(C)C)C(=O)N[C@@H](CCCNC(=N)N)C(=O)N[C@@H](CO)C(=O)N[C@@H](CCSC)C(=O)N[C@H](C(=O)N[C@@H](CC(=O)O)C(=O)N[C@@H](CCCCN)C(=O)N[C@@H](Cc1ccc(O)cc1)C(=O)N[C@@H](CCCNC(=N)N)C(=O)N[C@@H](CC(C)C)C(=O)N[C@@H](Cc1cnc[nH]1)C(=O)N[C@@H](CC(C)C)C(N)=O)[C@@H](C)O [Compound 42] (Palmitoyl-KKLRSMTDKYRLHL-NH2) | – | – | – |
| – | – | 74 (DRYLAIVHATNSQRPRKLL) [Compound 74] | 90.39 % of vehicle and 77.13 % of vehicle | 91.29 % of vehicle and 75.81 % of vehicle | 5 |
| – | – | 83 (Palmitoyl-HATNSQRPRKLLAEKV-NH2; not fully specified) [Compound 83] | 126.36 % of vehicle | 110.06 % of vehicle | 5 |
| 71.9 | 71.2 | CCCCCCCCCCCCCCCC(=O)N[C@@H](Cc1ccc(O)cc1)C(=O)N[C@@H](CCC(N)=O)C(=O)N[C@@H](CCCCN)C(=O)N[C@@H](CCCCN)C(=O)N[C@@H](CC(C)C)C(=O)N[C@@H](CCCNC(=N)N)C(=O)N[C@@H](CO)C(=O)N[C@@H](CCSC)C(=O)N[C@H](C(=O)N[C@@H](CC(=O)O)C(=O)N[C@@H](CCCCN)C(=O)N[C@@H](Cc1ccc(O)cc1)C(=O)N[C@@H](CCCNC(=N)N)C(=O)N[C@@H](CC(C)C)C(=O)N[C@@H](Cc1cnc[nH]1)C(=O)N[C@@H](CC(C)C)C(=O)N[C@@H](CO)C(=O)N[C@H](C(N)=O)C(C)C)[C@@H](C)O [Compound 40] (Palmitoyl-YQKKLRSMTDKYRLHLSV-NH2) | – | – | – |
| 32.4 | 49.6 | CCCCCCCCCCCCCCCC(=O)N[C@@H](CCSC)C(=O)NCC(=O)N[C@@H](Cc1ccc(O)cc1)C(=O)N[C@@H](CCC(N)=O)C(=O)N[C@@H](CCCCN)C(=O)N[C@@H](CCCCN)C(=O)N[C@@H](CC(C)C)C(=O)N[C@@H](CCCNC(=N)N)C(=O)N[C@@H](CO)C(=O)N[C@@H](CCSC)C(=O)N[C@H](C(=O)N[C@@H](CC(=O)O)C(=O)N[C@@H](CCCCN)C(=O)N[C@@H](Cc1ccc(O)cc1)C(=O)N[C@@H](CCCNC(=N)N)C(=O)N[C@@H](CC(C)C)C(N)=O)[C@@H](C)O [Compound 38, Pal-MGYQKKLRSMTDKYRL-amide] (Palmitoyl-MGYQKKLRSMTDKYRL-NH2) | – | – | – |
| – | – | 80 (Palmitoyl-HATNSQRPRKLLA-NH2; not fully specified) [Compound 80] | 102.2 % of vehicle | 69.02 % of vehicle | 5 |
